Bridge positions count the residues as written; N and C are the ends.
Target: TNF receptor (human)
Experiment: cell-based or functional assay

B1: AP301 peptide (peptide)
peptide: H-CGQRETPEGAEAKPWYC-OH
modifications: bridge 1-17; also: cyclized via the Cys residues, disulfide given as preferred, bond type of batch not given here
< 0.5 pg/mL: concentration of IL-6 (pg/ml, n = 5) released from fresh human whole blood, AP301 at 1 ng/ml | concentration of IL-6 (pg/ml, n = 5) released from fresh human whole blood, AP301 at 3 ng/ml | concentration of IL-6 (pg/ml, n = 5) released from fresh human whole blood, AP301 at 1 mg/ml as printed | concentration of IL-6 (pg/ml, n = 5) released from fresh human whole blood, AP301 at 10 mg/ml as printed
